Assay [1] deals with epidermal growth factor receptor (EGFR). The assay is described as follows: binding affinity, method not stated.
For assay [2], the target named is Her2 (human epidermal growth factor receptor 2). The assay is described as follows: binding affinity, method not stated.

Values joined by “and” are separate entries in the source; they are usually repeats but may differ in a detail not shown here. Equal values may be shown once.

By Kd is commonly meant the constant that tells how readily two partners part at equilibrium. Low readings indicate a tighter complex, high ones a looser complex. YHWYGYTPQNVI [peptide "E", binding motif for EGFR, …]: the Kd in assay [1] came out at 459000 nM. For FCGDGFYACYMDV [peptide "H", binding motif for Her2, …], in assay [2], the Kd was < 500 nM and 300 nM.

Values taken from patent publication US20250387497A1, “MULTIVALENT MULTISPECIFIC CONJUGATES AND RELATED COMPOSITIONS AND METHODS OF USE” (Purdue Research Foundation, priority 2022, published 2025).
